According to patent US20210139569A1 (STRESSMARQ BIOSCIENCES, published 2021):

Columns and labels:
[1] = molecular target: T1, α-synuclein peptide AA 1-30, BSA conjugate (human, N-terminus conjugated to a C-6 spacer (Ahx), which is conjugated to an N-terminal cysteine; conjugated to BSA); assay: ELISA on BSA-conjugated peptide (FIG. 10)
T1 construct: also called 1-30aa
Method: (§1) ELISA conditions for epitope mapping: Nunc® MaxiSorp™ 98 well plates ELISA plates were coated with peptide conjugated to BSA at 0.1 μg/well in 100 μl/well CCB (pH 9.6) overnight at 4° C. The plates were then blocked with 3% skim milk powder in PBS for 3 hours at room temperature. 100 μL/well antibody (1 μg/mL) was added and incubated for 1 hour at 37° C. Secondary Antibody 1:10,000 Goat anti-mouse IgG/IgM (H+L)-HRP at 100 uL/well in PBS-Tween for 1 hour at room temperature. All washing steps performed for 30 mins with PBS-Tween. […] Development time: 15 minutes. Plates were read at 450 nm.

[2] = molecular target: T2, α-synuclein peptide AA 21-50, BSA conjugate (human, N-terminus conjugated to a C-6 spacer (Ahx), which is conjugated to an N-terminal cysteine; conjugated to BSA); assay: ELISA on BSA-conjugated peptide (FIG. 10)
T2 construct: also called 21-50aa
Method: as §1

[3] = molecular target: T3, α-synuclein peptide AA 41-70, BSA conjugate (human, N-terminus conjugated to a C-6 spacer (Ahx), which is conjugated to an N-terminal cysteine; conjugated to BSA); assay: ELISA on BSA-conjugated peptide (FIG. 10)
T3 construct: also called 41-70aa
Method: as §1

[4] = molecular target: α-synuclein peptide AA 81-110, BSA conjugate (human, N-terminus conjugated to a C-6 spacer (Ahx), which is conjugated to an N-terminal cysteine; conjugated to BSA); assay: ELISA on BSA-conjugated peptide (FIG. 10)
Chain of α-synuclein peptide AA 81-110, BSA conjugate (human, N-terminus conjugated to a C-6 spacer (Ahx), which is conjugated to an N-terminal cysteine; conjugated to BSA) (peptide, as listed by the source): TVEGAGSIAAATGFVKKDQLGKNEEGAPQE
Method: as §1

[5] = molecular target: α-synuclein peptide AA 121-140, BSA conjugate (human, N-terminus conjugated to a C-6 spacer (Ahx), which is conjugated to an N-terminal cysteine; conjugated to BSA); assay: ELISA on BSA-conjugated peptide (FIG. 10)
Method: as §1

[6] = molecular target: α-synuclein peptide AA 101-130, BSA conjugate (human, N-terminus conjugated to a C-6 spacer (Ahx), which is conjugated to an N-terminal cysteine; conjugated to BSA); assay: binding to overlapping peptides (FIG. 10)
Chain of α-synuclein peptide AA 101-130, BSA conjugate (human, N-terminus conjugated to a C-6 spacer (Ahx), which is conjugated to an N-terminal cysteine; conjugated to BSA) (peptide, as listed by the source): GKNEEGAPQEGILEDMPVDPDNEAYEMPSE
Method: as §1

binding result [1]: no binding (tested: 1 µg/mL antibody)
binding result [2]: no binding (tested: 1 µg/mL antibody)
binding result [3]: no binding (tested: 1 µg/mL antibody)
binding result [4]: no binding (tested: 1 µg/mL antibody)
binding result [5]: no binding (tested: 1 µg/mL antibody)
binding result [6]: binds
B1: monoclonal antibody 2F11 (hybridoma ATCC #PTA-124174) (antibody, V domains shown)
VH: EVQLQQSGAELVRSGASVKLSCTASGFNIKDYYMFWVKQRPEQGLEWIGWNDPENGDTEYAPKFQGKATMTADTSSNTAYLQLSSLTSEDTAVYYCNAWDGNYVMDYWGQGTSVTVSS
VL: QIVLTQSPAIMSASLGERVTMTCTASSSVSSSYLHWYQQKPGSSPKLWIYSTSNLASGVPPRFSGSGSGTSYSLTISSMEAEDAATYYCHQYHRSPPMYTFGGGTKLE
notes: Mouse monoclonal, IgG1 kappa; Used as hybridoma supernatant or Protein G purified; with gold-labelled detection for electron microscopy; also called clone 2F11; 2F11 antibody
